Assay results taken from US20200270339A1.
Several values for one entry are separate records, joined by “and”; a condition that tells them apart may be missing. Equal values may be shown once.

What was measured:
[1] = molecular target: human IL-15 complexed with the IL-15 Receptor-alpha (human) (UniProt P40933); assay: SPR, antibody captured on Protein A chip, IL-15 complex as analyte
[2] = molecular target: human IL-15 complexed with the IL-15 Receptor-alpha (human) (UniProt P40933); assay: SPR, antibody captured on Protein A chip
[3] = molecular target: human IL-15 complexed with the IL-15 Receptor-alpha (human) (UniProt P40933); assay: cell-based or functional assay
[4] = molecular target: human IL-15 complexed with the IL-15 Receptor-alpha (human) (UniProt P40933); assay: SPR

AMG714 (antibody), sequence (VH): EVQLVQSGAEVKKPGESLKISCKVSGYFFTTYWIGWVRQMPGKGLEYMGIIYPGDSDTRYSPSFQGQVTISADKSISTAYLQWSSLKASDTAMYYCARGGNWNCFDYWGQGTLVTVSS
AMG714 (antibody), sequence (VL): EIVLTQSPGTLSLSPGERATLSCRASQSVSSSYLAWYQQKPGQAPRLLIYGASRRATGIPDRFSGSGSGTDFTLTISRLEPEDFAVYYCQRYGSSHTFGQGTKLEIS
human IL-15 complexed with the IL-15 Receptor-alpha (human), sequence (P40933 49-162 limits assumed, chain 1 of 2): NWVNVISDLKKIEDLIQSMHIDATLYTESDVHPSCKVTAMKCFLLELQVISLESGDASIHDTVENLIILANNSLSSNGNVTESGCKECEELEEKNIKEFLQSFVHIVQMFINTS
human IL-15 complexed with the IL-15 Receptor-alpha (human), sequence (chain, as listed by the source limits assumed, chain 2 of 2): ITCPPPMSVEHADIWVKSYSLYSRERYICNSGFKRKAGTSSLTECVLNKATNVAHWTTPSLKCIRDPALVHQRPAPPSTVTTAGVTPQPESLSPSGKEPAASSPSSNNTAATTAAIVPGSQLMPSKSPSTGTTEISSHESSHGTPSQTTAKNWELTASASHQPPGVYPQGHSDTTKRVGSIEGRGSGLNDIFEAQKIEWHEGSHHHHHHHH

- Kd [1]: 1.84 nM
- fold faster dissociation rate than from Antibody 70 variants [2]: 10 fold
- Max IC50 (pM), NK-92 proliferation assay [3]: 2650 pM
- Mean IC50 (pM), NK-92 proliferation assay [3]: 1300 pM
- Min IC50 (pM), NK-92 proliferation assay [3]: 378 pM
- Kd [4]: 1.86 nM and 1.82 nM
- koff [4]: 0.000398 s⁻¹ and 0.00038 s⁻¹
- kon [4]: 209000 M⁻¹ s⁻¹ and 214000 M⁻¹ s⁻¹
Substance: AMG714 (antibody)
